According to the nanobody polyreactivity screen of Harvey et al. (2022):

Test: yeast display, Sf9 membrane polyspecificity reagent, FACS + sequencing; frameworks hold sequencing errors
In short: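 Polyreactivity labels are assigned by the sorting gate from which each nanobody was recovered. The gates were low and high (top ~1%), set on anti-HA fluorescence for expression and streptavidin fluorescence for reagent binding. Before sorting, galactose-induced (36–48 hours) yeast display cells were stained for 1 hour at 4 °C with 10% biotinylated, detergent-solubilized Sf9 membrane reagent.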

Row | Sequence | polyreactivity (PSR sort gate)
1 | QVQLVESGGGLVQAGGSLRLSCAASGRTLPEYGMGWSRQAPGKEREFVAAISTRGGSTYYANSVKGRFTISRDNAKNTVYLQMNSLKPEDTAVYYCAKVYDRSCGDYWGQGTQVTVSS | low polyreactivity
2 | QFQLLESGGGLVQAGGSLRRSCAASGFTFDYYAMGWSRQAPGKERELVAVNNWSGGDTYYADSVKGRFTISRDNAKNTVYLQMNSLKPEDTAVYYCARVERMRYVGKYYPIRDYWGQGNQVTVSS | high polyreactivity
3 | QVQLVESGGGLVQAGGSLRLSCAASGSTFSSNAMGWYRQAPGKERELVAAISWSGASTYYADSVKGRFTISRDNAKNTVYLQMNSLKPEDTAVYYCATVWQAKYYGNHRFGYWGQGTQVTVSS | low polyreactivity
4 | QVQLVESGGGLVQAGGSLRLSCAASGSTFQYNAMGWYRQAPGKEREFVAAITNGGGSTYYADSVKGRFTISRDNAKNTVYLQMNSLKPEDTAVYYCNARFRYARYSQRYDYWGQGTQVTVSS | high polyreactivity
5 | QVQLVESGGGLVQAGGSLRLSCAASGFIFAYYAQGWYRQAPGKERELVAAITSRGGSTYYADSVKGRFTSSRDNAKNTVYVQMNSLKPEDTAVYYCAGRGYQRQYYYWGQGTQVTVSS | high polyreactivity
6 | QVQLVESGGGLVQAGGSLRLSCAASGRISRRNAMGWYRQAPGKEREFVATITSSGGCTYYADSVKGRFTISRDNAKNTVYLQMNSLKPEDTAVYYCAARVRGRYTEDYWGQGTQVTVSS | high polyreactivity
7 | QVQLVESGGGLVQAGGSLRLSCAASGSTFRYYAMGWYRQSPGKEREFVAAITKVGSRTSYADSVKGRFTISRDNAKNTVYLQMNSLKPEDTAVYYCATRDSPRTKNGYYYWGQGTKVTVSS | high polyreactivity
8 | QVHLVESGGWLVQAGGSLRLSCAASGRTFHVYAMGWYRQAPGKERELVAAITWSGDSTYYADSVKGRFTISRDNAKNTVYLQMNSLKPEDTAVYYCAASQFWKYDYWGQGTQVTVSS | low polyreactivity
9 | QVQLVESGAGLVQEGGSLRLSCAASGRTSGFNTMGRYRQAPGKETQLVAAISFSGGSTYYADSVKGRFTISRDNEKNTVYLQMNSLKPEDTEVYYCNALYRYLYRSGDYWGQGTQVSVSS | low polyreactivity
10 | QVQLVESGGGLVQAGGSLRLSCAASGRTFSKYAMGWYRQAPGKERELVASITRSGGSTNYADSVKGRFTISRDNAKNTVYLQINSLKPEDTAVYYCRRKLGRTHASGFDYWGQGTQVTVSS | low polyreactivity
11 | QVQLVESGGGLVQAGGSLRLSCAASGSIFWSYAMGWYRQAPGKERELVAAINWSGGRTYYADSVKGRFTISRDNAQNTVYLQMNSLKPEDTAVYYCNAPVHTAQGDEYDYWGQGTQVTVSS | high polyreactivity
12 | QVQLVESGGGLVQAGGSLRLSCAASGLMFRHYAMGWYRPAPGKERELVAAIDYSGGSTYYADSVKGRFTISRDNAKNTVYLQMNCLKPEDTAVYYCNRYHRLRVVPSRFVKYDYWGQGTQVTVSS | low polyreactivity
13 | QVQLVESGGGIVQAGGSLRLSSAASGSIFYYYAKGWYRQAPGKERELVATINISDGSTYYADSVKGRFTISRDNAKNTVYLQMNSLKPEDTAVYYCAAYYYFLDYDYWGQGTQVTVSS | low polyreactivity
14 | QVQLVESGGGLVQAGVSLRLRCASSGSIFRRNVMGWYRQAPGKERELVAAISWSGGRTYYADSVKGRFTISRDNAKNTVYLQMNSLKPEDTAVYYCAAENGYYAYDYWGQGTQVTVSS | high polyreactivity
15 | QVQLVESGGGLVQAGGSLRLSCAASGSTFSLNDMGWYRQAPGKERELVAVISSSTGITYYADSVKGRFTISRDNAKNTVYLQMNSLKPEDTAVYYCNADKWEVYYTRMYYWGQGTQVTVSS | low polyreactivity
16 | QVQLVESGGCLVQAGGRLRLSCAASGYIFDRNAMGWYRQAPGTERELVAAITKRGGITYYADSVKGRFTISRDNAKFSGYLQMNSLKPEDTAVYYCNALARSSRYDYWGQGTQVTVSS | low polyreactivity
17 | QVQLGESGGGLVQAGGSLRLSCAASGITFRWYAMGWYRQAPGKERELVAAITSVDSTDYADSVKGRFTISRDNAKNTVYLQMNSLKPEDTAVYYCAAQPYDWFYYYYVIFPHYEYWGQGTQVTVSS | low polyreactivity
18 | QVQLVESGGGLVQAGGSLRLSCAASGRIIGKNVMGWSRQAPGKDRELVAAISNSGGSTYYADSVKGRFTISRDNAKNTVYLQMNSLKPEDTAVYYCAVDTSYYDYWGQGTQVTVSS | high polyreactivity
19 | QVQLVESGGGLVQAGGSLRLSCAASGSIFIVYAMGWYRQAPGKERELVATITSGGSTNYADSVKGRFTISRDNAKNTVYLQMNSLKPEDTAVYYCATQFPPSTIYDYWGQGTQVTVSS | low polyreactivity
20 | QVQLVESGGGLVQAGGSLRLSCAASGSTLVYYDMGWYRQAPGKERELVATITGTDSAYYAVSVKGRFTISRDNAMNTVYLQMNRLKPEDTADCAADRAASRADYEYWGQGTQVTVSS | low polyreactivity
21 | QVQLVESGGGLVQAGGSLRLSCAASGFTFGHYVMGWSRQAPGKERELVAAITLSGGGTYYADSVKGRFTISRDNAKNTVYLQMNSLKPEDTAVYYCAAVGGEHAKKTYSRYKVDYWGQGTQVTVSS | low polyreactivity

Row | Sequence | polyreactivity (PSR sort gate)
22 | QVHLVESGGGLVQAGGSLRLSCAASGLTFAWSAMGWYRPAPGKEREWVAAITSSGSRTYYADSVKGRFTISRDNAKNTVYLQMNSLKPEDTAVYYCAAPSRYRPTKGYPYYYWGQGTQVTVSS | high polyreactivity
23 | QVQLVESGGGLVQAGGSLRLSCAASGRTFPYNAMGWYRQAPGKERELVAAISYSGGRTYYADSVKGRFTISRDNAKNTVYLLMNSLKPEDTAVYYCNALGSGREDDYWGQGTQVTVSS | high polyreactivity
24 | QVQLVESGGGLVQAGGSLRLSCAASGRIFSYYAMGWYRQAPGKERELVAAITSGGRTNYADSVKGRFTISRDNAKNTVYLQMNSLNPEDTAVYYCAAIFGYGSTWCRWGKDDYWGQGTQVTVSS | high polyreactivity
25 | QVQLVESGGGLVQAGGSLRLSCAASGGTFDYNAMGWYRQAPGKERELVAAITSGASTYYADSVKGRFTISRDNAKNTVYLQMNSLKPEDTAVYYCAKGPTPGYDYWGQGTQVTVSS | low polyreactivity
26 | QVQLVESGGGLVQAGGSLRLSCAASGRILSHYAMGWYRQAPGKERELVASISGSDGSTYYADSVKGRFTISRDNAKNTVYLQMNSLKPEDTAVYYCAVDSYQTGVYFYYVYWDFDLGYWGQGTQVTVSS | low polyreactivity
27 | QVQLVESGGGLVQARGSLRLSCAASGIIFGYNAKGWYRQAPGKERELVAVITWNGGSTYYADSVKGCFTISRDNAKNTVYLQMNSLKPEDTAVYYCNAGDDYAYGVELSYDYWGQGTQVTVSS | low polyreactivity
28 | QVQLVESGGGLVQAGGSLRLSCAASGSIFVYYAMRWYRQAPGKERELVAAITIGASTDYADSVKGRFTISRDNAKNTVYLQMNSLKPEDTAVYYCAADLYYGDYRTLPKPDEYDYWGQGTQVTVSS | low polyreactivity
29 | QVQLVESGGGLVQAGGSLRLSCAASGRIFHVYAMGWYRQAPGKERELVAAISSGDRTYYADSVKGRFIISRDNAKNTVYLQMNSLKPEDTAVYYCAATAQYYHYHLAKYDYWGQGTQVTVSS | low polyreactivity
30 | QVQLVESGGGLVQAGGSLRLSCAASGITFINYDMGWYRQAPGKERELVAAISQIGTSTYYADSVKGRFTISRDNAKNTVYLQMNSLKPEDTAVYYCNARYISTGFRYNYWGQGTQVTVSS | high polyreactivity
31 | QVQLVESGGGLVQAGGSLRLSCAASGLIFDVYDMGWYRQAPGKERELVAAISTTGGSTFYADSVKGRFTISRDNAKNTVYLQMYSLKPEDTAVYYCNADWAPTGFSGGYPYDYWGQGTQVTVSS | high polyreactivity
32 | QVQLVESGGGLVQAGGSLRLSCAASGRIFAWYAMGWYRQAPGKEREFVAAISRGGSTYYADSVKGRFTISRDNAKNTVYLQMNSLKPEDTAVYYCAASSPSSGRFDYWGQGTQVTVSS | high polyreactivity
33 | QVQLIESGGGLVQAGGSLRLSCAASGSIFYINTMGWYRQAPGKERELVATIRTSGGSTYADSVKGRFTISRDNAKNTVYLQMNSLKPEDTAVYYCAVRRYRSSSYGYYSWGQGTQVTVSS | high polyreactivity
34 | QVQLVESGGGLVQAGGSLRLSCAASGSIFKVYAMGWYRQAPGKEREFVAAITSSDSNTNYADSVKGRFTISRDNAKNTDYLQMNSLKPEDTAVYYCNARIYTRRYVPHYGFNYWGQGTQVTVSS | low polyreactivity
35 | QVQLVDSGGGLVQAGGSLRLSCAASGSTYSPNAMGWNRQAPGKERELVAAITGGGSTTYADSVQGRFTISRDNATNTVYLQMNSLKPEETAVYYCNTDGPRYARPFDSWGQGTQVTVSS | low polyreactivity
36 | QVQLVESGGGLVQAGGSLRLSCAASGSTIYLNAMGWYRQAPGKERELVAAIDYRGGSTYYADSVKGRFTISRDNAKNTVYLQMNSLKPEDTAVYYCNADYVYVHYQPGYYWGQGTQVTVSS | low polyreactivity
37 | QVQLVESGGGLVQAGGSLRLSCAASGRIFRRNAMGWYRQAPGKERELVASITRGGRTSYADSVKGRFTISRDNAKNTVYLQMNSLKPEDTAVYYCNARSYQSARFRGGYWGQGTQVTVSS | high polyreactivity
38 | QVQLVESGGGLVQAGGSLRLSCAASGSIFSSYAMGWYRQAPGKERELVAAISQSGGDTYYADSVKGRFTISRDNAKNTVYLQMNSLKPEDTAVYYCNRDFSLVVHYNFDYWGQGTQVTVSS | low polyreactivity
39 | QVQLVESGGGLVQAGGSLRLSCAASGSTFVINAMGWYRQAPGKEREFVAAISYSRGITYYADSVKGRFTISRDNAKNYVDLQMNSLKQEDTAVYYCAVSPFENRDSGYDYWGQCTQVTVSS | low polyreactivity
40 | QVQLVESGGGLVQAGGSLRLSCDASGSILPGYAMGWYRQEPGKEMELVAAISYRGTSTYYADSVKGRFTISRDNAKNTFYLQMNSLKPEDTAVYYCAAGGSWFRYPPSMDYWGQGTQVTVSS | high polyreactivity
41 | QFQLVESGGGLVQAGGSLRLSCAASGFTIYLYTMGWYRQAPGKERELVATISWSGASTYYADSVKGRFTISRDNAKNTVYLQMNSLKPEDTAVYYCATRYRYRYWGQGTQVTVSS | high polyreactivity
